What was measured:
purified protein [1] = substrate: N[C@H]1[C@@H](OP(=O)(O)O)O[C@H](CO)[C@@H](O)[C@@H]1O; test: purified protein; settings: ATP co-substrate, Mg2+, pH 8.0, 37°C, no activator
purified protein [2] = substrate: Nc1ncnc2c1ncn2[C@@H]1O[C@H](COP(=O)(O)OP(=O)(O)OP(=O)(O)O)[C@@H](O)[C@H]1O; test: purified protein; settings: 1 mM GlcN-1P co-substrate, Mg2+, pH 8.0, 37°C

B1: G. stearothermophilus ADP-Glc PPase GlgC/GlgD (Geobacillus stearothermophilus) (protein)
chain: MKKKCIAMLLAGGQGSRLRSLTTNIAKPAVPFGGKYRIIDFTLSNCTNSGIDTVGVLTQYQPLLLHSYIGIGSAWDLDRRNGGVTVLPPYSVSSGVKWYEGTANAVYQNINYIEQYNPDYVLVLSGDHIYKMDYQHMLDYHIAKQADVTISVIEVPWEEASRFGIMNTNEEMEIVEFAEKPAEPKSNLASMGIYIFNWPLLKQYLQIDNANPHSSHDFGKDVIPMLLREKKRPFAYPFEGYWKDVGTVKSLWEANMDLLDENNELDLFDRSWRIYSVNPNQPPQYISPEAEVSDSLVNEGCVVEGTVERSVLFQGVRIGKGAVVKESVIMPGAAVSEGAYVERAIVTPDSIIPPHSSVCPEDADDVVLVTAEWLKQSNEETARKDEA
Purified protein [1]
  Km: 400 µM
Purified protein [2]
  Km: 210 µM

— publication PMC9093745, “Carbohydrate Metabolism in Bacteria: Alternative Specificities in ADP-Glucose Pyrophosphorylases Open Novel Metabolic Scenarios and Biotechnological Tools” (Frontiers in Microbiology, 2022)
